# Reference: the Immune Epitope Database (IEDB)
# pIC50: −log10 of the molar value.
# Molecular target: HLA-A*02:01
# Experiment: IEDB peptide-MHC binding, cellular MHC/competitive/fluorescence; ≥ and ≤ were set here for values at or beyond the usual limits of such assays
# Settings: source organism: Mammarenavirus brazilense
row,Sequence,pIC50
1,AINIALIAV,5.08

# Same assay, conditions: source organism: Mammarenavirus machupoense
row,Sequence,pIC50
1,SVVQALTSL,5.03

# Same assay, conditions: source organism: Vaccinia virus WR
row,Sequence,pIC50
1,DQYKFHKLL,4.80
2,VTLNAGNIDI,4.89
3,IIDFLEGALI,≤ 4.15
4,ATDPDADAI,4.41
5,IIHTGCSQVM,4.91
6,NMNYSDDYM,4.95
7,DLAFLIKFIT,5.20
8,TMKIFYKHI,≤ 4.15
9,LVIVSDGPPT,≤ 4.15
10,DASLMDMIT,4.98
11,TAVNEEWLT,4.57
12,VVSSSTIAT,4.96
13,SQSTDIVCET,4.59
14,RLSLNRTIVT,5.06
15,GVKIRTKIPL,4.90
16,RQLAKAIIT,5.01
17,EVSINVDST,≤ 4.15
18,DIVGLDLENL,4.78
19,IIERSKKFI,5.28
20,TAASPMLYQL,≤ 4.15
21,STNFLANAST,≤ 4.15
22,HLSCKSGFT,5.21
23,TTDNKITSI,4.94
24,GIPITIRVT,4.73
25,AAASSTHRKV,≤ 4.15
26,GILSNYVKT,≤ 4.15

row,Sequence,pIC50
1,PVVFYRSGT,4.81
2,KTFMLPKQDI,4.47
3,TASGGKVLIT,≤ 4.15
4,EIPTRTLDT,5.22
5,ELDTLAAEI,5.02
6,IVMTPSPFYT,5.19
7,ATESDAIRT,4.97
8,VAPMPTASTA,4.60
9,HMLKLQARNI,4.62
10,STLPNKSDV,≤ 4.15
11,SVEKVGINLV,4.30
12,TAVNEEWLTA,4.60
13,KQQKKCKYCI,4.25
14,VIGASYISCT,4.75
15,TTSEVVDML,5.22
16,VVYNPSTMST,4.24
17,SVVTLLCVL,4.83
18,ATLGPANRI,4.77
19,NTIDQTANVV,5.18
20,TIRVTSNGL,4.63
21,DTQQHPIVVL,≤ 4.15
22,RINDDSKSI,4.87
23,PTNKLQAAVM,4.53
24,VTFNPVSDI,4.33
25,DIDEILGIA,≤ 4.15
26,VTDTINTVL,4.87

row,Sequence,pIC50
1,DIPVNNNIVL,≤ 4.15
2,HASPTLFNA,5.05
3,NTDSEMDQRL,≤ 4.15
4,TTLSRHIFM,5.19
5,TIENALVASL,4.84
6,TANVVFRYM,4.71
7,STVASAQIHL,4.85
8,PLITLTNVV,5.18
9,SIVVELEPSL,5.10
10,RTRGPLGIL,4.29
11,AQSKSSLLHA,4.48
12,MTENVEEDLA,4.61
13,KTFIIHKNL,5.02
14,LTFLSGGDL,4.72
15,DMPSLSNGL,4.33
16,IVIYPNFSKA,5.01
17,GVIFLISVIV,5.23
18,EITELVVEYM,4.45
19,IQETIRSDT,4.30
20,DIRTLLPILL,4.30
21,ITFALKKLI,≤ 4.15
22,MIKVGNCDET,≤ 4.15
23,KILTREMGFL,5.26
24,ITDAAVAVA,5.07
25,KVTINNLKM,5.24
26,PLSKVHGLDV,4.42

# Molecular target: HLA-A*02:01
# Experiment: IEDB peptide-MHC binding, purified MHC/competitive/radioactivity; ≥ and ≤ were set here for values at or beyond the usual limits of such assays
# Settings: source organism: Hepatitis B virus
row,Sequence,pIC50
1,GLSPTVWLSV,7.54

# Same assay, conditions: source organism: Influenza A virus
row,Sequence,pIC50
1,RTMAWTVVNSI,6.19
2,LLFLKVPA,6.58

# Same assay, conditions: source organism: Mammarenavirus brazilense
row,Sequence,pIC50
1,TLVDICFWST,7.89
2,GLFQLIFFL,9.36
3,FTTTLFLHLV,6.33
4,QLFSFFEEV,7.92
5,TLFFTTTLFL,6.37
6,FQLIFFLTL,6.45

# Same assay, conditions: source organism: Mammarenavirus juninense
row,Sequence,pIC50
1,SLIAIIKGV,7.92

# Same assay, conditions: source organism: Mammarenavirus lassaense
row,Sequence,pIC50
1,LMDCIMFDAA,6.23
2,NLYDHALMSI,8.41

# Same assay, conditions: source organism: Mammarenavirus machupoense
row,Sequence,pIC50
1,FLQEALNIA,8.16
2,TMNSVVQAL,5.90
3,EALNIALVAV,6.47
4,FTASLFLHLV,7.12

# Same assay, conditions: source organism: Mammarenavirus whitewaterense
row,Sequence,pIC50
1,CMINDTHFLL,7.18
2,YVSSIFLHL,6.80

# Same assay, conditions: source organism: Vaccinia virus WR
row,Sequence,pIC50
1,KMHDVIAPA,8.59
2,FIDTVSVYT,6.64
3,NAPIKTFML,5.47
4,EVGIKSVVV,6.91
5,ILMDNKGLGV,8.89
6,IAISSLNKL,5.82
7,AITDAAVAV,5.83
8,RLKSSQTIEL,6.47
9,TIDGRIVTL,5.66
10,FTGITLFLL,6.89
11,AVISKVTYSL,5.32
12,ILAIIFLVL,6.88
13,FLKDVMVEI,8.52
14,LTNVVNIST,5.40
15,SVVVPIKFI,5.53
16,YLVNAIIDSA,6.87
17,FIRYGDASLM,5.63
18,VVMAYVGIKL,6.66
19,LLHVFQEYRL,7.57
20,YMATTILEMV,8.82
21,GIYHDDLVV,5.55
22,NTSWNDTVT,6.84
23,TIATYIDALA,6.90
24,YTALHYYYL,7.77
25,RTCSNWVPL,8.31
26,CMAFTIPSI,9.05
27,ELVRYIELV,6.54
